Measurements from PMC9771711 (Science (New York, N.Y.), 2021).

Target: CCHFV Gc^1579 (Crimean-Congo hemorrhagic fever virus, …)
Assay: BLI

B1: ADI-36121 (as used in BLI) (antibody, V domains shown)
VH: EVQLLESGGDLVQPGGSLRLSCAASGFTFSSYVMSWVRQAPGKGLEWVSVIYRGGSTKYADSVKGRFTISRDDSKNTLYLQMNSLRVEDTAVYYCVKDPKAWLEPEWWGQGTLVTVSS
VL: DIQMTQSPSSLSASVGDRVTITCRASQSISKYLSWFQQKPGKAPNLLIYAASYLQSGVPSRFSGSGSGTDFTLTISSLQPEDFATYYCQQSYSNPRTFGQGTKVEIK
Does B1 bind?
Result: binds
